How the values were obtained:
[1] = target: His6-flag-FKBP, no drug added (ethanol alone) (human); experiment: phage display affinity enrichment: FRAP(2015-2114) phagemids mixed with pBC control phagemids, 1 uM His6-flag-FKBP with ethanol alone, capture on Ni-NTA agarose, acid elution
[2] = target: His6-flag-FKBP in complex with rapamycin (human); experiment: phage display affinity enrichment: FRAP(2015-2114) phagemids mixed with pBC control phagemids, 1 uM His6-flag-FKBP plus about 1 uM rapamycin, capture on Ni-NTA agarose, acid elution
His6-flag-FKBP in complex with rapamycin (human), sequence (chain, as listed by the source limits assumed): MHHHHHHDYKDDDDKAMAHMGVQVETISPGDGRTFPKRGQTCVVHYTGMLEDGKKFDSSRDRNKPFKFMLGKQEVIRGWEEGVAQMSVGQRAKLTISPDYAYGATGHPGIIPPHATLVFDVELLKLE

[3] = target: His6-flag-FKBP in complex with FK506 (human); experiment: phage display affinity enrichment: FRAP(2015-2114) phagemids mixed with pBC control phagemids, 1 uM His6-flag-FKBP plus about 1 uM FK506, capture on Ni-NTA agarose, acid elution
His6-flag-FKBP in complex with FK506 (human), sequence (chain, as listed by the source limits assumed): as above

[4] = target: 1FRB-p65(361-550) (human) (UniProt P42345); experiment: cell-based or functional assay
1FRB-p65(361-550) (human), sequence (P42345 other isoform, or with tags, fused parts or gaps): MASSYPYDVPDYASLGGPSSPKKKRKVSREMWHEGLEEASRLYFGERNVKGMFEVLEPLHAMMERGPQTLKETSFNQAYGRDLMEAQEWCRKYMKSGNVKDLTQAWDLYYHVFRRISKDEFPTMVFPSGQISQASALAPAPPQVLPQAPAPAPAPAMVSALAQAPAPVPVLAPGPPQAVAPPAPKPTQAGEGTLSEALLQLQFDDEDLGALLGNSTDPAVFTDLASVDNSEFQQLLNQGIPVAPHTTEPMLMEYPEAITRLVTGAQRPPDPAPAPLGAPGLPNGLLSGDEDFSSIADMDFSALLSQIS

His6-flag-FKBP, no drug added (ethanol alone) (human), sequence (chain, as listed by the source limits assumed): as the sequence (chain, as listed by the source limits assumed) above

FRAP (amino acids 2015-2114) displayed on filamentous phagemid particles, from p-CANTAB-AP-FRAP(2015-2114) (from UniProt P03661 215-424)
fold enrichment of FRAP phage compared to the starting mixture (carb/chlor cfu ratio) [1]: 1.5 fold | fold enrichment of FRAP phage compared to the starting mixture (carb/chlor cfu ratio) [2]: 271 fold | fold enrichment of FRAP phage compared to the starting mixture (carb/chlor cfu ratio) [3]: 2.4 fold

ZFHD1-3FKBP in complex with rapamycin (from UniProt P62942 1-107)
SEAP activity of the stable clone at 100 nM rapamycin, extended assay (mock transfected cells 47 units) (arbitrary fluorescence units) [4]: > 90000 | SEAP secretion, transiently transfected HT1080 cells (ZFHD1-site SEAP reporter); lowest rapamycin concentration with detectable SEAP [4]: 0.5 nM | SEAP secretion, transiently transfected HT1080 cells; rapamycin concentration at peak SEAP [4]: 5 nM

ZFHD1-3FKBP, no drug (from UniProt P62942 1-107)
SEAP activity of the stable clone without rapamycin, extended assay (mock transfected cells 47 units) (arbitrary fluorescence units) [4]: 54

From US6506379
